# Changes are numbered by the printed parent chain. Names and notes keep the numbering of the source.
# B1: Salmonella typhimurium QAPRTase R118A (enzyme)
# chain: MPPRRYNPDDRRDALLERINLDIPAAVAQALREDLGGEVDAGNDITAQLLPADTQAHATVITREDGVFCGKRWVEEVFIQLAGDDVRLTWHVDDGDAIHANQTVFELNGPARVLLTGEATALNFVQTLSGVASEVRRYVGLLAGTQTQLLDTRKTLPGLRTALKYAVLCGGGANHRLGLTDAFLIKENHIIASGSVRQAVEKAFWLHPDVPVEVEVENLDELDDALKAGADIIMLDNFNTDQMREAVKRVNGQARLEVSGNVTAETLREFAETGVDFISVGALTKHVRALDLSMRFC
# B2: Salmonella typhimurium QAPRTase R152A (enzyme)
# chain: B1 chain with A119R, R153A
# B3: Salmonella typhimurium QAPRTase R175A (enzyme)
# chain: B1 chain with A119R, R176A
# B4: Salmonella typhimurium QAPRTase K185A (enzyme)
# chain: B1 chain with A119R, K186A
# B5: Salmonella typhimurium QAPRTase H188A (enzyme)
# chain: B1 chain with A119R, H189A
# Biological target: the molecule itself
# Assay: SEC
row,Protein,stoichiometry N
1,B1,2
2,B2,2
3,B3,2
4,B4,2
5,B5,2
